From the domain aggregation screens of Martell et al. (2025)

Test: soluble fraction after stress (log2 fold change); higher = more stays soluble; pooled small domains, quantitative proteomics
Conditions: stress: pH 4
Summary of the method: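 Values are on a log2 scale, where higher means more of the domain stayed soluble after pH 4 stress. They are fold changes in the soluble amount of each domain from pooled custom libraries, measured by high-throughput quantitative proteomics. The fold change is taken to reflect aggregation propensity.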

| Sequence | soluble fraction (log2) |
| --- | --- |
| HMSFISRMVVAVEDIALSTRPNSTPSGDKYVSKGTVLLMEKRENDWVEVRQPSSPLSGWAPKTSLLSV | -0.426 |
| HMSFNLSETKKLILEEIQKGVSSVTQIAATAGISKGMTYNHLRELKLMGYIADGDSGYVITDAGKIAS | -0.323 |
| HMSFRYLHVKRQLMSLIGTMNAHERLPSRTDLSETFQVARTTIERAISELIGEGWLYARDGSGTYVAER | -0.919 |
| HMSFSTHHEYYIYNLAVDMRKGYDGLSGLVVNELGRQPWDGSVYVFFNTMRDKVKLLVWDTDGYVIYSKR | -0.505 |
| HMSFTDLILKSANAIDEMGGIWENGKQILGEKAIAIHEEIVDNGLNPDKDGFYKLANGQMIQYG | -0.85 |
| HMSFVEVTVSELKNYVNSHARIKLKSGKEFKGFILDANEEGVIIKVQLRGGTAESTISYNRIDRAAVF | -1.11 |
| HMSGAERAAALLVALGPEVASEIMKFLDDESIQKLASEIAKIEVLSPQEKEDLIGQFLLELKKT | -0.982 |
| HMSGAWEVGLLRQFTDWMGTQYNAYAGRNFDAITVAQVAEKNPELLTPFVESFFKERVEPALAAG | -0.589 |
| HMSGEDYLERILMLKEKHGNVRAIDIANSMNFSKPSVSIALHKLSENGYVVIQNNGAIELTEKGLEVAT | -0.0506 |
| HMSGEIPFPPAFKPSADHIAIASEKGINIETELLNFRDYHQARGTKLIDWNSAFRVWLRNAR | -0.869 |
| HMSGEITVPNLIGVEAIQAKTLLIQAGFLIKEFYDLDSTQPAGVVIRQAPEAGTTQTIGKSVTITINKQ | 0.106 |
| HMSGENAVLTEGTMVTVRRGGETITATARKETVKQFLSRMDIIPGSREMVGIELMENSVMLTISD | -1.02 |
| HMSGFPTDAQIVREIRNILPTLENPTPRMVRKALENTFEVDMGESKTKKYINNIIITEYEKWSSVQSIRE | -0.804 |
| HMSGGNTSAFKGKLNYEYRGNDTIITGSTYPVKELIKKAGGRWDPGSSAWIIKGRHVSDNEIF | -0.317 |
| HMSGQKDVPDLYGMTVKQAKKEVEAAGFKLKEGKEVYSNDYSKGQIAEQDPESGSKAKKGSSITVHVSKG | 0.22 |
| HMSGRIWTDNYGRTIEADVIKVNINRTVLLEFTDKKTKTVSFDTFISKDIQYLEYLLTRRNRGKL | -1.14 |
| HMSGRVPTADDIAVGMKVYVPRLGGTGTVVTEPVRDKVVIQVGSLRLHAEVAELLLPDEHGRIQVPR | -0.127 |
| HMSGTGSYVALLRDPQGNVGKVVVKGSKGEQVLSQPQQAARLDGATPSYEVTGRQIAEDFGRALAV | -0.198 |
| HMSGTYIATVEAGSLDIYKSMTSNETIGKASRGDVFQILEDMGSGYARVSYNDVEGYMSIKTGDASIEEL | -1.83 |
| HMSGVSESIEKKIQYLLLEKPLPLHDLIEAIEIGKEEDRLKVLRSLMDSDTVKIEDDLYHWNA | -0.393 |
| HMSGYSTLFTRMSREDAQAVVSLLQDDGIEYRYNDDTGTVQVPSATVDQTRAKLVSAGYPRS | -0.303 |
| HMSHANAALTPRARLRLAKLIVEEHWPVATAAKMFMVSPPTARKWATRFRAEGPAGMADRSSRP | 0.123 |
| HMSHFRMLPSITEADAFLKSRSLPAGLEVREQVDAFLAQARQTLALAQEAPWLSKQEVLETLADEFVQTS | -1.25 |
| HMSHFSERLKSLRQQSSITQAKLADDLNVTKSLISMYESGQRLPSFEMLETIADYFNVPLSSLV | -0.51 |
| HMSHGFFTLQSDDLNLLRTVLEGHSSIGDIKIEGIQLVAYLKEPLNGAELNKILFEKGINLSYLVHRK | -1.52 |
| HMSHGFVHLKGAVQHPGIYPVKENTRWDEVVKAAGGLTAAADIQQVNLAKVASDQESLYVPEKGET | 0.161 |

| Sequence | soluble fraction (log2) |
| --- | --- |
| HMSHGSIYFSGKTGLKGSVDINGTVNSINKKIFLKPGNYNFLIKADGYKNLKGSFQISKGDKKFVELVLIP | -0.0804 |
| HMSHGYVELKAENNDALISALENHTWFENIKLDPETNLVKAILTKPIEAENLNKMLFEKGIILSHLVKRK | -0.286 |
| HMSHYDILEVDPKASATEIKQSFRKKSLQYHPDRNKSSDAHEYMTKITEAYNILGDKDKRRHYDMELKL | 0.172 |
| HMSHYEYKVGDRVNLLDYDDFGILYKEKDNFYNVVVYYNGEFVEVNVKRITLEVAAKELYPEGYDLSTLFV | -2.41 |
| HMSIASASVKEKIRDIVSSEPPQKPFSDAKIAEILAEDGIAIARRTVAKYREEIGIPTKSLRKR | 0.292 |
| HMSIDNALLTLIGKTGTAQTVLRPSGKVVIGDEVYDAVTAGEFIDKGSAIVVTRVEATQLYVEASEA | -0.343 |
| HMSIELEISADGNNYRVSGLSDGEDVRVYSVSGVQVFSGKAQGGEVVIPADNWNKGIYVISAGGSSVKVL | -0.312 |
| HMSIGLEDLIEQKGVADTDLRPSGWINVGNQRIFVVTEGSYIDQNDNVIILSVDGNRVVVRKI | -0.941 |
| HMSIGLEELVGSHGEAITDLRPAGQVSIAARRISAVSEGDFINKGDSVEVLSVEGYRVMVRKLET | -0.4 |
| HMSIITLFQEINAAVAEATGGRVPESVVQNFILGKDVVIPEDVKEIIISKLKAFATDIEGMLEESGFD | -2.59 |
| HMSILDEAEFKKIESALLDFITNNIFTVKELLQASRGIKQDKFWKVFQFLQSERKVVVNELGYIEL | -0.513 |
| HMSILSIGLERGMKKGVAWGIAKSILDILEETGPVSEKTREMIVTETDAERLSAWVKKAARSNSEEDFLSK | -1.21 |
| HMSILSRREHEIMQWVKGGKTNIEIAQILGISARTVRNHLQNVFRKLDVINRAQAVFEVERRR | -0.639 |
| HMSIMNEQIREILNQQVTKTSKIQQLLLLGLTRRQVADLVTNGNYGFVQNVYRNMLDAGIFTP | -0.487 |
| HMSIMNLSEKIVVLRKSNGMSQEELAEKLYVSRQAVSRWEMGTAVPDSTNILQLGKLFHVTTDYLLNDEYE | -0.232 |
| HMSINQIADKGYITRLIDNNANIKDVLYYDASSRILAIEDPKYMFYLKNTDWNQFAKEMGFKLE | -0.556 |
| HMSINTLEVHSLKALENLAESPLLISFSYENEEYNYRLASSDVSLLKKISSNYSDDSDIKGLRFIS | -0.316 |
| HMSIQQEATGNRIRELLLNNGYTVKDIQEVMGFENPQAVYKWLSGKSLPNLDNLLILSKVLHTSIEDILV | -1.09 |
| HMSISSIDFENLKSDELSDAQITQIYRQAQEQGLSIDELSSLAIARGMSPTEVAKLRSRFNSIP | 0.00293 |
| HMSIVVPDLRGKTLEEARAILKEADLDFEINDSTFSKTARPGTIRDVVPSPGSRVKAGRILFISINGF | -0.0618 |
| HMSIYQYFNISEINSIDDLKKQYFKLAKKYHPDAGGDKVSFQELQNEYEQLTKKILSGAELNADELKTE | -0.163 |
| HMSKASLFFLFNHKDELYIVDNNHVQDVPKPRELIRRFSTIEQIREHALHLGLPIANDTARE | -0.0573 |
| HMSKEGLASLLEDINGLGAIRRKTLIDHFGSVAKIRGARPEEIAALPGMGRKIAEHILASLRED | 0.418 |
| HMSKEKQILQLLQHGYSQRRIADTLSVSRNTVAKVAKAAIEHPVSSDSLDSIDELELHQKLFPEEVLI | -0.184 |
| HMSKGKNEVIAYLKAHNDHRLTVAEILDGLKEEGISINRSTIYRNLDKLVENGDILAFKGKDSESAFYQYS | -0.643 |
| HMSKHLWNKVLPKVTTANITNLINQAIRKGEWRMDNKGVVHIIWRYRGKIIEVTGYLKDKVFNVGNAWVR | -0.134 |

| Sequence | soluble fraction (log2) |
| --- | --- |
| HMSKITNALLMMKLLSNGKVYSVKELSEELGVTERMVRNYKEQLEMSGYIIESFKGPGGGYFINKN | 0.207 |
| HMSKKAIVINLLKRPDGASLKDIMQATYWQAHSVRGFISGSLTKKMGLNVESFKRPDGERAYRIN | 0.22 |
| HMSKLIDQELINFFKNQIESKSFRYGVSIEDSYEEIKSNQIKFYGEQEDKLKAIDNAFIELKRERAGIR | -0.293 |
| HMSKNDLAGDEADVYKLLSVETGKPISDLVNRLPFGKSKTREILNTLAEKGFVYISGSGRGTKYHR | -0.403 |
| HMSKNTFIGNIDDKELYVGSGRYGPFMLYDGKFTNITRYLSDESKELTDITIDDYSKIVNNARPK | -1.5 |
| HMSKNVTMPNLVGYSMRQAKAELLSRGLHLGKLIYVNDIATNNVISQLYRNAEIEPGVKIESESYVDLVVG | -0.631 |
| HMSKPTLTDELLTLDLFEEIIKAKENAKGANKRFSLVGFLESKYIVDQEMLPKVNVKVTEYYNLTREN | -1.8 |
| HMSKPVVWIVGDSTVSAFTDNYYYPRYGWGTQIDKYLDGTFEVKNIALSGRSSTSYTADKEYGELIAG | 0.0502 |
| HMSKRIFPNEFQRNSPDAMVMLDKMNLSRINVDPLTKSLTLNGGGSVKTLLNGREVSAVEIAALSP | 0.156 |
| HMSKSENLYSAARELIPGGVNSPVRAFTGVGGTPLFIEKADGAYLYDVDGKAYIDYVGSWGPMVLGHNHP | -0.279 |
| HMSKSIEEIYDEAIRSLANEEYDSAKKLFSYLIDNFSDPEKLPLSLFWLGEIEFSSSNFDQSKIHYIE | -1 |
| HMSKSIGEALKEERRSLGLTQEQFIKGIISESFYSKVERGKNEIVAVDLLKILAANNISEEEFLSKLN | -0.168 |
| HMSKSPELMEKIKEFAEGYFRENGETPSNKTIAGAMGMGRSTVYYYLVDMAQRGMISYENGVISTEKIRKL | -0.65 |
| HMSKTDYKILYSDLNREDAKQLSLLLEDKKIPYQTSEDGKTIKIPEGMVNRFRMEVATMGVNF | -0.014 |
| HMSKTKDVLVQLMAERGLTQSDIARALSVRPQAVQQWVSGKTRPTGKNLEALAEFLQLPPAVIVHGP | 0.344 |
| HMSKTQVKSVLDDIKGIGVVRRKALIKHFNDIEAIKAAQLAELKAVAGMDSKSAQSVYDFFHK | ≥ 0.43 |
| HMSKYERVYTGSEINVNHLKSQLEDAGISSVVRNDHESAIRAGFGSDYDRGVLLFVEKDNLLRAKHIIEKT | 0.0771 |
| HMSKYLAFTVKKNDELLPFIEKALNGISHTKAKAILANGGAMVNKNTITQYNYPLTPGMTVEISRH | 0.187 |
| HMSLDLNENEKTIFDIIQNKKTIRLSELKIEAGLSNKGWDKAMKSLTKQGLAKVVKTEDQLTVKLL | 0.0483 |
| HMSLEDNEVIQRMKVILDRFDEETAVDRTTAFKAVLDHIGKMDAESKTLEHMAEMLEALLDKVLEE | -0.371 |
| HMSLGPNAYGKPATALNILRETVMGKELFDHAFKTYSKRWMFKHPSPEDFFRTMEDASAVDLDWFWR | 0.22 |
| HMSLGSQEYSIGFRNGDSTYHYIDKALKELAYEGVIDELSTQWFGSSRAVDFPSQKDALSELGYIA | 0.22 |
| HMSLGSSLFHARKKSGLTQEAVAEKLGVSRQTISKWETNETLPDIRQSKGLAMLYHMTLDELIE | 0.138 |
| HMSLGTDVVPDFTGKGIKEAKTEFAAYSEGELYIIGEGEKVKEQFPLPGEKVNKNSDLILYV | 0.0276 |
